Data published in patent publication US7541034 (US Dept. of Health and Human Services, dated 2009).

What was measured:
[1] = biological target: T1, CD22 (human, on CA46, Daudi and other human B-cell lines and on fresh patient leukemia cells) (human, UniProt P20273 20-847); test: competition of unlabelled IgG against 125I-labelled RFB4 IgG on CA46 cells, 4 C, gamma counting
T1 construct: whole, on cells; also called CD22 antigen
T1 sequence (looked up): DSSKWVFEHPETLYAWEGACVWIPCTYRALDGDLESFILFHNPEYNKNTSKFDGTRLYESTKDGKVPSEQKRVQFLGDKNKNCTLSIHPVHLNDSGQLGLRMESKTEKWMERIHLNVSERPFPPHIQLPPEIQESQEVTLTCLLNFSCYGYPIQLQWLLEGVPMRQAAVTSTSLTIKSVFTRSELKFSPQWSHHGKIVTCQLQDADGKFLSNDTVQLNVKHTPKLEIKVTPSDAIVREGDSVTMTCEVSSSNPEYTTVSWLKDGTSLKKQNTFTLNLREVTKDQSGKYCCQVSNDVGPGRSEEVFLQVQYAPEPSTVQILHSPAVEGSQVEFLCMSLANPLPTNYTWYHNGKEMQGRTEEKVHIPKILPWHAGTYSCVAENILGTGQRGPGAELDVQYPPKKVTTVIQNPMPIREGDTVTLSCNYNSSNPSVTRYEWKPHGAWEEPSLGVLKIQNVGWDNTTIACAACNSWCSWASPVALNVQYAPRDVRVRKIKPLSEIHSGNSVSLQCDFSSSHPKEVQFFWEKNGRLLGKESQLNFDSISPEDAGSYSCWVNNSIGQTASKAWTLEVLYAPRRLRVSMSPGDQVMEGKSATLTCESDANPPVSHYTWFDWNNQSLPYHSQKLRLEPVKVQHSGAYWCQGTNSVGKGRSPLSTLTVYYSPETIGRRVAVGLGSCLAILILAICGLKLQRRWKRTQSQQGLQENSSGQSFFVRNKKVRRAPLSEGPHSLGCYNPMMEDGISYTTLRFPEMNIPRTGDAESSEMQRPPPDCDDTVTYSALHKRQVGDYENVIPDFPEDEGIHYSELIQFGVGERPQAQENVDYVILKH

murine CD22 = biological target: T2, murine CD22 (murine, UniProt P35329 22-708); test: not described (told as the reason for the choice of monkeys)
T2 sequence (looked up): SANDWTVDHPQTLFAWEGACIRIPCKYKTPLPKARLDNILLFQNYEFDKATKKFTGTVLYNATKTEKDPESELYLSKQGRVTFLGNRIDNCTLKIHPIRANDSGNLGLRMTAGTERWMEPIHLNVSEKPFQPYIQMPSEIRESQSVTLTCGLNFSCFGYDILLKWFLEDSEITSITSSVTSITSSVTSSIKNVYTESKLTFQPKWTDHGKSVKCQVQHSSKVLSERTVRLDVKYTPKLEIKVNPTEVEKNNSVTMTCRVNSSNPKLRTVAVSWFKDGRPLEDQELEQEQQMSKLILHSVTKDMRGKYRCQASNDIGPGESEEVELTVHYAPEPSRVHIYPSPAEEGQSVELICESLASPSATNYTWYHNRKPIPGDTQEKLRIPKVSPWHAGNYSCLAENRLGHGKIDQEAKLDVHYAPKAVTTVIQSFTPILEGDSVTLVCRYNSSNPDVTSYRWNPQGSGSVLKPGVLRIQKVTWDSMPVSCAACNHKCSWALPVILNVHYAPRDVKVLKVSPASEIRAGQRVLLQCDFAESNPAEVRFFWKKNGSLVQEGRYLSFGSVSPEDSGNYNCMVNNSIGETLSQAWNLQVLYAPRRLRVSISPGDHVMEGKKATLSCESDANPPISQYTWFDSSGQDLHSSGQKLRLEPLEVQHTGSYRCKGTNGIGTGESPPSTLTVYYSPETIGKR

[2] = biological target: T1, CD22 (human, on CA46, Daudi and other …); test: competition of unlabelled IgG against 125I-labelled RFB4 IgG on Daudi cells, 4 C, gamma counting

B1: RFB4 IgG (antibody, V domains shown)
VH: EVQLVESGGGLVKPGGSLKLSCAASGFAFSIYDMSWVRQTPEKRLEWVAYISSGGGTTYYPDTVKGRFTISRDNAKNTLYLQMSSLKSEDTAMYYCARHSGYGSSYGVLFAYWGQGTLVTVSA
VL: DIQMTQTTSSLSASLGDRVTISCRASQDISNYLNWYQQKPDGTVKLLIYYTSILHSGVPSRFSGSGSGTDYSLTISNLEQEDFATYFCQQGNTLPWTFGGGTKLEIK
notes: also called RFB4 mAb; native RFB4 IgG
IC50 [1]: 4.5 nM
binding result (murine CD22): no binding
IC50 [2]: 10 nM
